Assay results reported in patent US9572342B2, “Use of an anthranilic diamide derivatives with heteroaromatic and heterocyclic substituents in combination with a biologicalcontrol agent” (BAYER INTELLECTUAL PROPERTY GMBH, priority 2011, dated 2017).

Tests used:
Assay type in all cases: in vivo
[1] = tested on: mustard beetle larvae (Phaedon cochleariae); experiment: Phaedon cochleariae larvae - spray application (Example 1); settings: 48 h, read-out: Mortality in % after 2d
Procedure: (§1) Solvent: 78.0 parts by weight of acetone
(§2) • 1.5 parts by weight of dimethylformamide Emulsifier: 0.5 parts by weight of alkylaryl polyglycolether
(§3) To produce a suitable preparation of active compound, 1 part by weight of active compound is mixed with the stated amount of solvent and emulsifier, and the concentrate is diluted with emulsifier-containing water to the desired concentration. The preparation of bacteria, fungi or yeast products contains 10^9-10^10 spores/g or cells/g, the preparation of the virus 10^13 particles/1. To produce a suitable preparation of a biological suspension the cells, viruses or spores are diluted with emulsifier-containing water to the desired concentration.
Chinese cabbage (Brassica pekinensis) leaf-discs are sprayed with a preparation of the active ingredient of the desired concentration. Once dry, the leaf discs are infested with mustard beetle larvae (Phaedon cochleariae).
After the specified period of time, mortality in % is determined. 100% means that all the beetle larvae have been killed; 0% means that none of the beetle larvae have been killed. The mortality values thus determined are recalculated using the Colby-formula.

[2] = tested on: two spotted spider mite (Tetranychus urticae); experiment: Tetranychus urticae test (OP-resistant, spray application) (Example 3); settings: 1.5 g ai/ha
Procedure: Solvent: 78 parts by weight acetone
• 1.5 parts by weight dimethylformamide Wetting agent: 0.5 parts by weight alkylarylpolyglcolether
as §3, with “preparation of the bacteria, fungi” for “preparation of bacteria, fungi”, “spores/g or cells/g. To produce” for “spores/g or cells/g, the preparation of the virus 10^13 particles/1. To produce”
French beans (Phaseolus vulgaris) infected with all developmental stages of the two spotted spider mite (Tetranychus urticae), are sprayed with a preparation of the active ingredient at the desired dose rates.
After the specified period of time, activity in % is determined Thus 100% means that all spider mites have been killed and 0% means that none of the spider mites have been killed. The mortality values determined thus are recalculated using the Colby-formula (see sheet 1).

[3] = tested on: fall armyworm larvae (Spodoptera frugiperda); experiment: Spodoptera frugiperda - spray application (Example 2); settings: 1.5 g ai/ha
Procedure: as §1, §2
as §3, with “preparation of the bacteria, fungi” for “preparation of bacteria, fungi”
Corn (Zea mais) leaf-discs are sprayed with a preparation of the active ingredient of the desired concentration. Once dry, the leaf discs are infested with fall armyworm larvae (Spodoptera frugiperda).
After the specified period of time, mortality in % is determined. 100% means that all the caterpillars have been killed; 0% means that none of the caterpillars have been killed. The mortality values thus determined are recalculated using the Colby-formula.

| Molecule | mortality at 1000 g/ha [1] [%] | Mortality in % after 6d [2] [%] | Mortality in % after 2d [3] [%] |
| --- | --- | --- | --- |
| Cc1ccc(C(C)C)c(O)c1 [Thymol] | 0 | – | – |
| Harpin: Harpin protein, isolated from Erwinia amylovora (products known as Messenger, ProAct, Employ) (protein, UniProt Q01099 1-403, looked up) Harpin HrpN: MSLNTSGLGASTMQISIGGAGGNNGLLGTSRQNAGLGGNSALGLGGGNQNDTVNQLAGLLTGMMMMMSMMGGGGLMGGGLGGGLGNGLGGSGGLGEGLSNALNDMLGGSLNTLGSKGGNNTTSTTNSPLDQALGINSTSQNDDSTSGTDSTSDSSDPMQQLLKMFSEIMQSLFGDGQDGTQGSSSGGKQPTEGEQNAYKKGVTDALSGLMGNGLSQLLGNGGLGGGQGGNAGTGLDGSSLGGKGLQNLSGPVDYQQLGNAVGTGIGMKAGIQALNDIGTHSDSSTRSFVNKGDRAMAKEIGQFMDQYPEVFGKPQYQKGPGQEVKTDDKSWAKALSKPDDDGMTPASMEQFNKAKGMIKSAMAGDTGNGNLQARGAGGSSLGIDAMMAGDAINNMALGKLGAA | – | 0 | 0 |
